Results from article PMC9029710, “Improvement of Biocatalytic Properties and Cytotoxic Activity of L-Asparaginase from Rhodospirillum rubrum by Conjugation with Chitosan-Based Cationic Polyelectrolytes” (Pharmaceuticals, 2022).

Substrate: NC(=O)C[C@H](N)C(=O)O
Test: circular dichroism hydrolysis assay
Assay type: biochemical, Rhodospirillum rubrum
Details: native RrA, pH 7.5, 5 mM citrate-phosphate-borate buffer, 37 °C
Description: circular dichroism hydrolysis assay on RrA (L-asparaginase from Rhodospirillum rubrum)

B1: RrA (L-asparaginase from Rhodospirillum rubrum) (Rhodospirillum rubrum ATCC 11170) (protein)
chain: MAVSPSPLRIFTAGGTIDKDYRLEENGLVVGDPFVAEVLKTARLAGAVSIVALSRKDSLDFTEADREAIGRAVGQAVEDHILLTHGTDTMVETARYLGGLPELAGKTVVLSGAMVPGRVGGSDAAFNIGFACAAALMLAPGVYIAMHGKVFDPAKTRKNRGLGRFEPIDDQE
notes: 172 aa, 18 kDa, tetramer; native unconjugated enzyme
B1 showed a Km of 4.8 ± 1.6 mM, a Vmax of 59 µmol/min/mg and a Vmax/Km of 12300 µL/min/mg.
